Holding throughout (assay): purified protein
Substrate in data set [1]: C[C@@H](O)CSCCS(=O)(=O)O
It is filed as biochemical, Xanthobacter versatilis. Conditions: oxidation, 10 mM NAD+, pH 7.5, 30 °C.

Substrate in data set [2]: O=S(=O)(O)CCSCCO
It is filed as biochemical, Xanthobacter versatilis. The conditions noted are these: oxidation, 5 mM NAD+, pH 7.5, 30 °C.

Substrate in data set [3]: C[C@H](O)CSCCS(=O)(=O)O
It is filed as biochemical, Xanthobacter versatilis. Conditions: oxidation, 10 mM NAD+, pH 7.5, 30 °C.

Substrate in data set [4]: CC(=O)CSCCS(=O)(=O)O
It is filed as biochemical, Xanthobacter versatilis. The conditions noted are these: reduction, 0.17 mM NADH, pH 7.5, 30 °C.

Substrate in data set [5]: C[C@@H](O)CSCCS(=O)(=O)O
Conditions: oxidation, 10 mM NAD+, pH 7.5, 30 °C.

Substrate in data set [6]: C[C@H](O)CSCCS(=O)(=O)O
The conditions noted are these: oxidation, 10 mM NAD+, pH 7.5, 30 °C.

Substrate in data set [7]: CC(=O)CSCCS(=O)(=O)O
The conditions noted are these: reduction, 0.17 mM NADH, pH 7.5, 30 °C.

B1: rR-HPCDH1 (Xanthobacter versatilis) (protein)
chain: SRVAIVTGASSGNGLAIATRFLARGDRVAALDLSAETLEETARTHWHAYADKVLRVRADVADEGDVNAAIAATMEQFGAIDVLVNNAGITGNSEAGVLHTTPVEQFDKVMAVNVRGIFLGCRAVLPHMLLQGAGVIVNIASVASLVAFPGRSAYTTSKGAVLQLTKSVAVDYAGSGIRCNAVCPGMIETPMTQWRLDQPELRDQVLARIPQKEIGTAAQVADAVMFLAGEDATYVNGAALVMDGAYTAI
In general, Km refers to the substrate concentration at which the rate is half of its maximum. One may read the kcat as the number of substrate molecules converted per active site and unit of time at saturation. What is called kcat/Km is the second-order rate constant that governs catalysis at low substrate concentration. In the case of B1, the Km in data set [1] stood at 96 ± 7 µM; in data set [2], 960 ± 100 µM; in data set [3], 220 ± 70 µM; in data set [4], 68 ± 10 µM. For the same protein, the kcat in data set [1] came to 48 ± 1 s⁻¹; in data set [3], 0.12 ± 0.01 s⁻¹. The kcat/Km was 500000 M⁻¹ s⁻¹ in data set [1] and 530 M⁻¹ s⁻¹ in data set [3].

B2: rS-HPCDH1 (Xanthobacter versatilis) (protein)
chain: MLDAEVIAITGGAAGIGLAVAHAAIRAGARVALIDRDGACAQRAAAEFGAAAWGVGADVTDEAAITAAMAGAQRALGPLTGLVNNAGIAGFGSVHATEVETWSRIMAVNVTGTFLASKAALFGMLERGRGAIVNFGSVAGLVGIPTMAAYCAAKGAVVNLTRQMAADYSGRGIRVNVVCPGTVAGTDMGRQLLGTDCDPELEARRLAKYPMGRFGTPEDIAEAAVFLLSTKAAFVTGSVLAVDGGMTAI
For the protein B2, in data set [5], the Km turned out to be 5200 ± 300 µM, the kcat is 2.4 s⁻¹ and the kcat/Km stood at 460 M⁻¹ s⁻¹. In data set [6], the Km stood at 220 ± 20 µM, the kcat is 28 s⁻¹ and the kcat/Km worked out at 130000 M⁻¹ s⁻¹. Besides, in data set [7], the Km is 240 ± 10 µM, the kcat was 20 s⁻¹ and the kcat/Km was determined as 83000 M⁻¹ s⁻¹.
